{
  "source": "patent US20080098491A1",
  "about": "“MOUSE MODELS TO STUDY CACHEXIA” (ZOLTAN LABORATORIES LLC, priority 2006, published 2008)",
  "molecules": {"B1": {"name": "highly purified PALP: human placental alkaline phosphatase purified to homogeneity from commercial PALP; printed as 'PALP' in Tables 1, 7, 8 (protein, UniProt P05187 23-506, looked up)", "Alkaline phosphatase, …": "IIPVEEENPDFWNREAAEALGAAKKLQPAQTAAKNLIIFLGDGMGVSTVTAARILKGQKKDKLGPEIPLAMDRFPYVALSKTYNVDKHVPDSGATATAYLCGVKGNFQTIGLSAAARFNQCNTTRGNEVISVMNRAKKAGKSVGVVTTTRVQHASPAGTYAHTVNRNWYSDADVPASARQEGCQDIATQLISNMDIDVILGGGRKYMFRMGTPDPEYPDDYSQGGTRLDGKNLVQEWLAKRQGARYVWNRTELMQASLDPSVTHLMGLFEPGDMKYEIHRDSTLDPSLMEMTEAALRLLSRNPRGFFLFVEGGRIDHGHHESRAYRALTETIMFDDAIERAGQLTSEEDTLSLVTADHSHVFSFGGYPLRGSSIFGLAPGKARDRKAYTVLLYGNGPGYVLKDGARPDVTESESGSPEYRQQSAVPLDEETHAGEDVAVFARGPQAHLVHGVQEQTFIAHVMAFAACLEPYTACDLAPPAGTTD"}},
  "key": {"MXT mouse mammary tumor [1]": {"system": "MXT mouse mammary tumor", "assay": "Cisplatin-treated MXT mouse mammary tumor model, purified PALP, AT, holo-TF, apo-TF (Example 9, Experiment 2)", "assay_type": "in vivo", "details": "12-mg/kg s.c. with cisplatin 3-mg/kg i.p.", "source_text": "(§1) The B16 mouse melanoma and MXT mouse mammary tumors were developed in first generation hybrid BDF1 (C57 B1 female×DBA/2 male) adult female mice kept at specified pathogen free (SPF) hygienic level. These models were chosen for these experiments because these mice have the complete immune system, and both tumors grow very rapidly. To develop the tumors, B16 and MXT tumor tissue fragments of about 0.1-cm^3 were surgically implanted subcutaneously into the intrascapular region to develop the tumors. Each tumor fragment contained about 1-1.5×10^6 cells. The animals were kept in macrolon cages on ventilated rack at 22-24° C. (50-60% humidity) with lighting regimen of 12/12 h light/dark. The animals had free access to tap water and were fed with sterilized standard diet (Charles River VRF1, Germany) ad libitum. The animals were taken care of according to the “Guiding Principle for the care and use of Animals” based upon the Helsinki declaration and they were approved by the local ethical committee.\n(§2) In case of both tumor models the tumor size was usually in the range of 0.2 to 0.5-g when treatments started 7-11 days after tumor implantation; the mice were selected so that in the same treatment group the difference in tumor size was no greater than 0.1 gram. In some experiments, the test proteins were suspended in physiological saline and injected in 50-μl volume subcutaneously in the vicinity of tumor (within 1-cm of tumor margin). In other experiments, the test proteins were dispersed in Vaselinum cholesteratum and used topically; 150-mg cream was applied on the tumor and the vicinity of tumor area (with about 0.5-cm of the tumor margin). The tumor volume was determined by using calipers; this technique is well known to one having ordinary skill in the art. Tumor volume was calculated according to the generally accepted formula: V=a^2×b×7r/6, where “a” and “b” mean the shortest and longest diameter, respectively, of the measured tumor.\nExperiment 2. The commercial PALP used in this model for Exp. 1 was composed of PALP (˜10%), TF (˜12%), AT (˜30%), albumin (˜35%) and the degradation products of TF (˜13%). […] In this experiment, it was determined whether the other two major proteins, i.e. TF and AT, present in the commercial PALP preparation in addition to PALP, also influence cisplatin-induced loss of body weight or not. The mouse MXT mammary tumor was developed as described in Example 3. In the first group, animals remained untreated during the whole observation period. In the second group, starting on the 7th day after tumor implantation, mice were administered 3-mg per 1-kg of cisplatin i.p. 6-times every second day. In the third group, starting on the 7th day after tumor implantation, mice were simultaneously administered 3-mg per 1-kg of cisplatin i.p. and 12-mg per 1-kg of purified PALP s.c. In the fourth group, starting on the 7th day after tumor implantation, mice were simultaneously administered 3-mg per 1-kg of cisplatin i.p. and 12-mg per 1-kg of highly purified AT s.c. In the fifth group, starting on the 7th day after tumor implantation, mice were simultaneously administered 3-mg per 1-kg of cisplatin i.p. and 12-mg per 1-kg of commercial holo-TF (h-TF, T 0665 in the Sigma catalog) s.c. In the sixth group, starting on the 7th day after tumor implantation, mice were simultaneously administered 3-mg per 1-kg of cisplatin i.p. and 12-mg per 1-kg of commercial apo-TF (a-TF, T 2036 in the Sigma catalog) s.c. Holo-TF contained 1,100-1,600 μg iron per gram protein while apo-TF was essentially iron-free. Each treatment with the proteins was also performed 6-times on every second day simultaneously with the cisplatin treatment. Each group included 7 animals. The mean values for total weight, tumor weight and body weight (the difference between total and tumor weight) are shown in gram in TABLE 7."}, "fibroblast proliferation": {"system": "fibroblast proliferation", "details": "in vitro; cited from earlier work"}, "human HT 168 melanoma": {"system": "human HT 168 melanoma", "details": "total weight includes tumor weight; cited from earlier work"}, "B16 mouse melanoma [2]": {"system": "B16 mouse melanoma", "details": "cited from earlier work"}, "MXT mouse mammary tumor [3]": {"system": "MXT mouse mammary tumor", "assay": "Cisplatin-treated MXT mouse mammary tumor model, PALP and TF (Example 9, Experiment 1)", "assay_type": "in vivo", "details": "co-treated with cisplatin 3-mg/kg i.p.", "source_text": "as §1, §2\nExperiment 1. The mouse MXT mammary tumor was developed as described in Example 3. In the first group, animals remained untreated during the whole observation period. In the second group, starting on the 7th day after tumor implantation, mice were intraperitoneally (i.p.) administered 3-mg per 1-kg total weight of cisplatin 7-times every second day. In the third group, starting on the 7th day after tumor implantation, mice were simultaneously administered 3-mg per 1-kg of cisplatin i.p. and 16-mg per 1-kg of purified PALP s.c. In the fourth group, starting on the 7th day after tumor implantation, mice were simultaneously administered 3-mg per 1-kg of cisplatin i.p. and 60-mg per 1-kg of commercial PALP s.c. In the fifth group, starting on the 7th day after tumor implantation, mice were simultaneously administered 3-mg per 1-kg of cisplatin i.p. and 14-mg per 1-kg of commercial TF (T 3309 in the Sigma catalog) s.c. Each treatment was performed 7-times on every second day. Each group included 7 animals. The mean values for total weight, tumor weight and body weight (the difference between total and tumor weight) are shown in TABLE 6."}, "mouse MXT tumor": {"system": "mouse MXT tumor", "details": "cisplatin treated; cited from earlier work"}, "B16 mouse melanoma [4]": {"system": "B16 mouse melanoma", "assay": "B16 mouse melanoma model, s.c. highly purified PALP (Example 4, Experiment 1)", "assay_type": "in vivo", "details": "highly purified PALP 14-mg/kg s.c.", "source_text": "The B16 mouse melanoma and MXT mouse mammary tumors were developed in first generation hybrid BDF1 (C57 B1 female×DBA/2 male) adult female mice kept at specified pathogen free (SPF) hygienic level. These models were chosen for these experiments because these mice have the complete immune system, and both tumors grow very rapidly. To develop the tumors, B16 and MXT tumor tissue fragments of about 0.1-cm^3 were surgically implanted subcutaneously into the intrascapular region to develop the tumors. Each tumor fragment contained about 1-1.5×10^6 cells. The animals were kept in macrolon cages on ventilated rack at 22-24° C. (50-60% humidity) with lighting regimen of 12/12 h light/dark. The animals had free access to tap water and were fed with sterilized standard diet (Charles River VRF1, Germany) ad libitum. […]\nIn case of both tumor models the tumor size was usually in the range of 0.2 to 0.5-g when treatments started 7-11 days after tumor implantation; the mice were selected so that in the same treatment group the difference in tumor size was no greater than 0.1 gram. […] The tumor volume was determined by using calipers; this technique is well known to one having ordinary skill in the art. Tumor volume was calculated according to the generally accepted formula: V=a^2×b×7r/6, where “a” and “b” mean the shortest and longest diameter, respectively, of the measured tumor. […]"}},
  "data": [
    {"molecule": "AT: human α1-antitrypsin purified to homogeneity from commercial PALP", "values": [
      {"measurement": "Effect on cisplatin-induced body weight loss", "setting": "MXT mouse mammary tumor [1]", "value": "partially reversed cisplatin-induced body weight loss"},
      {"measurement": "Effect of pre-heating on the stimulatory effect on fibroblast proliferation", "setting": "fibroblast proliferation", "value": "enhanced by pre-heating it at 65-75 °C for 30 min or at 41 °C for 21 hours"}
    ]},
    {"molecule": "B1", "values": [
      {"measurement": "Effect on tumor induced loss of total weight", "setting": "human HT 168 melanoma", "value": "reduces tumor induced loss of total weight"},
      {"measurement": "Effect on tumor growth", "setting": "B16 mouse melanoma [2]; administered subcutaneously or topically", "value": "reduced tumor growth"},
      {"measurement": "Effect on the action of CCDTHT on tumor growth", "setting": "B16 mouse melanoma [2]; mouse, in vivo", "value": "enhance the effect of CCDTHT"},
      {"measurement": "Effect on body weight loss induced by the tumor and cisplatin", "setting": "MXT mouse mammary tumor [3]", "value": "not only prevented the loss but significantly enhanced body weight"},
      {"measurement": "Effect on total weight loss", "setting": "mouse MXT tumor", "value": "reduce total weight loss"},
      {"measurement": "Effect on loss of body weight", "setting": "B16 mouse melanoma [4]", "value": "reversed loss of body weight"},
      {"measurement": "Effect on tumor size", "setting": "B16 mouse melanoma [4]", "value": "no major effects on the tumor size"}
    ]}
  ]
}
